Columns and labels:
rhodopsin = rhodopsin (UniProt P02699); conditions: cited from earlier work
[1] = target: T1, His8-MBP-rhodopsin E113Q/M257Y (in N2C/N282C) (human, UniProt P08100 1-348, N2^NtermC | N282^ECL3C | E113^3.28Q | M257^6.40Y); assay: AlphaScreen or HTRF
[2] = target: WT rhodopsin (1–321)-TEV site-tTA (Tango construct) (human, UniProt P08100 1-321, N2^NtermC | N282^ECL3C); assay: Tango assay
[3] = target: E113Q/M257Y rhodopsin (1–321)-TEV site-tTA (Tango construct) (human, UniProt P08100 1-321, N2^NtermC | N282^ECL3C | E113^3.28Q | M257^6.40Y); assay: Tango assay
[4] = target: T1, His8-MBP-rhodopsin E113Q/M257Y (in …); assay: pull-down

## arrestin (from UniProt P10523)
rhodopsin
  Kd: 50 nM

B1: untagged 3A_arrestin (residues 10–392) (domain or fragment, mouse, UniProt P20443 10-392, looked up)
chain: SHVIFKKVSRDKSVTIYLGKRDYVDHVSQVEPVDGVVLVDPELVKGKKVYVTLTCAFRYGQEDIDVMGLTFRRDLYFSRVQVYPPVGAMSVLTQLQESLLKKLGDNTYPFLLTFPDYLPCSVMLQPAPQDVGKSCGVDFEVKAFASDITDPEEDKIPKKSSVRLLIRKVQHAPPEMGPQPSAEASWQFFMSDKPLNLSVSLSKEIYFHGEPIPVTVTVTNNTDKVVKKIKVSVEQIANVVLYSSDYYVKPVASEETQEKVQPNSTLTKTLVLVPLLANNRERRGIALDGKIKHEDTNLASSTIIKEGIDRTVMGILVSYHIKVKLTVSGFLGELTSSEVATEVPFRLMHPQPEDPAKESVQDENAAAEEFARQNLKDTGENTE
[1]
  IC50: 15 nM

## TGGRVLEDLKSCGLF [GαCT peptide, a high affinity peptide variant of the C-terminus of G-transducin (Gt)]
[1]
  IC50: 700 nM

B2: WT arrestin (10–392)-TEV protease (Tango construct) (domain or fragment, mouse, UniProt P20443 10-392, looked up)
chain: SHVIFKKVSRDKSVTIYLGKRDYVDHVSQVEPVDGVVLVDPELVKGKKVYVTLTCAFRYGQEDIDVMGLTFRRDLYFSRVQVYPPVGAMSVLTQLQESLLKKLGDNTYPFLLTFPDYLPCSVMLQPAPQDVGKSCGVDFEVKAFASDITDPEEDKIPKKSSVRLLIRKVQHAPPEMGPQPSAEASWQFFMSDKPLNLSVSLSKEIYFHGEPIPVTVTVTNNTDKVVKKIKVSVEQIANVVLYSSDYYVKPVASEETQEKVQPNSTLTKTLVLVPLLANNRERRGIALDGKIKHEDTNLASSTIIKEGIDRTVMGILVSYHIKVKLTVSGFLGELTSSEVATEVPFRLMHPQPEDPAKESVQDENLVFEEFARQNLKDTGENTE
[2]
  fold increase of binding with all-trans-retinal: ~3 fold

B3: 3A_arrestin (10–392)-TEV protease (Tango construct) (domain or fragment, mouse, UniProt P20443 10-392, looked up)
chain: SHVIFKKVSRDKSVTIYLGKRDYVDHVSQVEPVDGVVLVDPELVKGKKVYVTLTCAFRYGQEDIDVMGLTFRRDLYFSRVQVYPPVGAMSVLTQLQESLLKKLGDNTYPFLLTFPDYLPCSVMLQPAPQDVGKSCGVDFEVKAFASDITDPEEDKIPKKSSVRLLIRKVQHAPPEMGPQPSAEASWQFFMSDKPLNLSVSLSKEIYFHGEPIPVTVTVTNNTDKVVKKIKVSVEQIANVVLYSSDYYVKPVASEETQEKVQPNSTLTKTLVLVPLLANNRERRGIALDGKIKHEDTNLASSTIIKEGIDRTVMGILVSYHIKVKLTVSGFLGELTSSEVATEVPFRLMHPQPEDPAKESVQDENAAAEEFARQNLKDTGENTE
[3]
  fold increase of binding signal with all-trans-retinal: ~5 fold

B4: 35S-labelled 3A_arrestin (L374A/V375A/F376A, in vitro translated) (natural protein, mouse, UniProt P20443 1-403, looked up)
chain: MAACGKTNKSHVIFKKVSRDKSVTIYLGKRDYVDHVSQVEPVDGVVLVDPELVKGKKVYVTLTCAFRYGQEDIDVMGLTFRRDLYFSRVQVYPPVGAMSVLTQLQESLLKKLGDNTYPFLLTFPDYLPCSVMLQPAPQDVGKSCGVDFEVKAFASDITDPEEDKIPKKSSVRLLIRKVQHAPPEMGPQPSAEASWQFFMSDKPLNLSVSLSKEIYFHGEPIPVTVTVTNNTDKVVKKIKVSVEQIANVVLYSSDYYVKPVASEETQEKVQPNSTLTKTLVLVPLLANNRERRGIALDGKIKHEDTNLASSTIIKEGIDRTVMGILVSYHIKVKLTVSGFLGELTSSEVATEVPFRLMHPQPEDPAKESVQDENAAAEEFARQNLKDTGENTEGKKDEDAGQDE
modifications: 35S-methionine
[4]
  fold of the binding of WT arrestin to WT rhodopsin, with all-trans-retinal: ~60 fold

— paper PMC4521999 (Nature, 2015)
